Measurements as given in publication PMC8573169, “Structural basis for the inhibition of the Bacillus subtilis c-di-AMP cyclase CdaA by the phosphoglucomutase GlmM” (The Journal of Biological Chemistry, 2021).

B3: full-length B. subtilis GlmM (phosphoglucosamine mutase), His-tagged (enzyme, UniProt O34824 1-448, looked up)
chain: MGKYFGTDGVRGVANSELTPELAFKVGRFGGYVLTKDKQRPKVLIGRDTRISGHMLEGALVAGLLSIGAEVMRLGVISTPGVSYLTKAMDAEAGVMISASHNPVQDNGIKFFGGDGFKLSDEQEAEIERLMDEPEDKLPRPVGADLGLVNDYFEGGQKYLQFLKQTADEDFTGIHVALDCANGATSSLATHLFADLDADVSTMGTSPNGLNINDGVGSTHPEALSAFVKEKNADLGLAFDGDGDRLIAVDEKGNIVDGDQIMYICSKHLKSEGRLKDDTVVSTVMSNLGFYKALEKEGIKSVQTAVGDRYVVEAMKKDGYNVGGEQSGHLIFLDYNTTGDGLLSAIMLMNTLKATGKPLSELAAEMQKFPQLLVNVRVTDKYKVEENEKVKAVISEVEKEMNGDGRILVRPSGTEPLVRVMAEAKTKELCDEYVNRIVEVVRSEMGLE
notes: GlmM of B. subtilis strain 168, full-length protein; also called glmM-his; phosphoglucomutase GlmM; source: E. coli BL21(DE3), purified (Ni-NTA, SEC); also in lysate, mixed with the partner's lysate before Ni-NTA and SEC; not shown: His6, C-terminal, kept

Key:
[1] = target: the molecule itself; test: crystal structure; purified CdaACD:GlmM_(F369) complex at 10 mg/ml, two conditions (complex 1, 3.6 A; complex 2, 4.2 A); three complexes in the asymmetric unit
[2] = target: the molecule itself; test: crystal structure; tag-less CdaACD at 4 mg/ml; 0.1 M sodium cacodylate pH 6.5, 0.1 M ammonium sulfate, 0.3 M sodium formate, 6% PEG 8000, 3% gamma-PGA; dimer in the asymmetric unit; 2.8 A
[3] = target: the molecule itself; test: SEC-SAXS; purified proteins or purified complexes (CdaACD 5 mg/ml, GlmM 24 mg/ml, CdaACD:GlmM 24 mg/ml, CdaACD:GlmM_(F369) 10 mg/ml) on a Shodex KW403 column in 30 mM Tris pH 7.5, 150 mM NaCl, with continuous SAXS data collection; envelopes fitted with the crystal structures
[4] = target: B3; test: MST; fluorescently labelled (RED-NHS) CdaACD at 25 nM final, unlabelled GlmM 0.78 uM to 800 uM final; 10 mM HEPES pH 7.5, 150 mM NaCl, 0.05% Tween-20; Monolith NT.115, LED power 95%, MST power 80%; five runs; details: both partners purified

B1: B. subtilis GlmM_(F369) variant lacking the C-terminal domain 4, His-tagged (domain or fragment, UniProt O34824 1-369, looked up)
chain: MGKYFGTDGVRGVANSELTPELAFKVGRFGGYVLTKDKQRPKVLIGRDTRISGHMLEGALVAGLLSIGAEVMRLGVISTPGVSYLTKAMDAEAGVMISASHNPVQDNGIKFFGGDGFKLSDEQEAEIERLMDEPEDKLPRPVGADLGLVNDYFEGGQKYLQFLKQTADEDFTGIHVALDCANGATSSLATHLFADLDADVSTMGTSPNGLNINDGVGSTHPEALSAFVKEKNADLGLAFDGDGDRLIAVDEKGNIVDGDQIMYICSKHLKSEGRLKDDTVVSTVMSNLGFYKALEKEGIKSVQTAVGDRYVVEAMKKDGYNVGGEQSGHLIFLDYNTTGDGLLSAIMLMNTLKATGKPLSELAAEMQKF
notes: GlmM of B. subtilis strain 168, residues Met1 to Phe369 (domains 1 to 3, lacking the flexible C-terminal domain 4); also called truncated GlmM; glmM_(F369)-his; source: E. coli BL21(DE3), purified (Ni-NTA, SEC); also in lysate, mixed with the partner's lysate before Ni-NTA and SEC; not shown: His6, C-terminal, kept
- stoichiometry N [1]: 2

B2: tag-less B. subtilis CdaACD (domain or fragment, UniProt Q45589 97-273, looked up)
chain: FFSRSGTPVEEAQQKTIEAITKAINYMAKRRIGALLTIERDTGMGDYIETGIPLNAKVSSELLINIFIPNTPLHDGAVIMKNNEIAAAACYLPLSESPFISKELGTRHRAAVGISEVTDSLTIIVSEETGGVSVAKNGDLHRELTEEALKEMLEAEFKKNTRDTSSNRWYWRGKKNG
notes: C-terminal catalytic (DAC) domain of the c-di-AMP cyclase CdaA of B. subtilis strain 168, starting from amino acid Phe97; also called tag less CdaACD; source: E. coli BL21(DE3), purified (Ni-NTA, SEC), His tag removed with thrombin, SEC; not shown: His6, N-terminal, cleaved
- stoichiometry N [2]: 2

Binder: B3
- stoichiometry N [3]: 2

B4: B. subtilis CdaA catalytic domain (CdaACD), His-tagged (domain or fragment, UniProt Q45589 97-273, looked up)
chain: FFSRSGTPVEEAQQKTIEAITKAINYMAKRRIGALLTIERDTGMGDYIETGIPLNAKVSSELLINIFIPNTPLHDGAVIMKNNEIAAAACYLPLSESPFISKELGTRHRAAVGISEVTDSLTIIVSEETGGVSVAKNGDLHRELTEEALKEMLEAEFKKNTRDTSSNRWYWRGKKNG
notes: C-terminal catalytic (DAC) domain of the c-di-AMP cyclase CdaA of B. subtilis strain 168, starting from amino acid Phe97; The His tag is thrombin cleavable; For MST the protein was labelled with an amine-reactive dye (Monolith Protein Labeling RED-NHS 2nd Generation kit); also called soluble catalytic domain of the c-di-AMP cyclase CdaA; his-cdaACD; source: E. coli BL21(DE3), purified (Ni-NTA, …)
- Kd [4]: 14.4 ± 0.962 µM
- stoichiometry N [1]: 2
